Results taken from PMC314469, “Protein Interaction Networks by Proteome Peptide Scanning” (PLoS Biology, 2004).

T1: Abp1 SH3 (ABP1_YEAST), P15891
T1 chain: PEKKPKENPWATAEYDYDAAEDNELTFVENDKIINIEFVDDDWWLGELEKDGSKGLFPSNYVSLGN

T2: Rvs167 SH3 (RV167_YEAST), P39743
T2 chain: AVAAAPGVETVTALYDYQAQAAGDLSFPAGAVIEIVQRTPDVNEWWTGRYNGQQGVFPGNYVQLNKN

T3: Boi2 SH3 (BOI2_YEAST), P39969
T3 chain: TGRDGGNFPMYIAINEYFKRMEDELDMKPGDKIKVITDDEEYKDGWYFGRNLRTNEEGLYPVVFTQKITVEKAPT

T4: Yhr016c SH3 (YSC84_YEAST), P32793
T4 chain: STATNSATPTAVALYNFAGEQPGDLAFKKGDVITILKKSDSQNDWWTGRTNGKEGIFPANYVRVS

T5: Yfr024 SH3 (LSB3_YEAST), P43603
T5 chain: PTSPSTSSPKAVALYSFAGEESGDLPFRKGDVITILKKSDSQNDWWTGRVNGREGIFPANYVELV

T6: Boi1 SH3 (BOI1_YEAST), P38041
T6 chain: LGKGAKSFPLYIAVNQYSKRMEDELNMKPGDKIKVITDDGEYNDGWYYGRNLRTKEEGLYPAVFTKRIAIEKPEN


Legend:
Test in all cases: SPOT array
[1] = target: T1, Abp1 SH3 (ABP1_YEAST), P15891
[2] = target: T2, Rvs167 SH3 (RV167_YEAST), P39743
[3] = target: T3, Boi2 SH3 (BOI2_YEAST), P39969
[4] = target: T4, Yhr016c SH3 (YSC84_YEAST), P32793
[5] = target: T5, Yfr024 SH3 (LSB3_YEAST), P43603
[6] = target: T6, Boi1 SH3 (BOI1_YEAST), P38041

| Binder | normalised SPOT signal, Boehringer light units (BLU); mean over the file's lines of this peptide [1] | other results |
| --- | --- | --- |
| NIQTIAMPLTTKP [YIL053W 16-28] | 111 |  |
| NISIDYKPSRNKP [YKL126W 329-341] | 181 |  |
| NITVDYKPSKNKP [YMR104C 326-338] | 108 |  |
| NKIETLDPALIRP [YDL007W 329-341] | 270 |  |
| NKIKETLPREKKP [YMR255W 67-79] | 179 |  |
| NKLLPPHPFADKP [YGL143C 142-154] | 69.9 |  |
| NKPGWVVYPPPPKP [YML035C 220-233] | 180 |  |
| NKRDKKKKKYPRKP [YDR485C 329-342] | 0 |  |
| NKSKFTDMLDPEKP [YBR033W 382-395] | 160 |  |
| NKTFFLKPPIGRP [YBR182C 407-419] | 7480 |  |
| NLANGLMDTMPNKP [YBL084C 527-540] | 33.5 |  |
| NLGDIVTPTIQRP [YPL070W 456-468] | 45.9 |  |
| NLKIDSAPAYLKP [YKR011C 56-68] | 112 |  |
| NLLLLDADNFPIKP [YBR015C 261-274] | 169 |  |
| NLRGRIEFQPPLKP [YMR020W 267-280] | 235 |  |
| NLSVRSKRLFPVRP [YAL040C 532-545] | 326 |  |
| NLTTTSKPSLPEKP [YPR171W 329-342] | 610 |  |
| NLVNIWKPDFERP [YJR140C 1438-1450] | 130 |  |
| NLVQSIDPNHSKP [YPL075W 339-351] | 169 |  |
| NMPFTLNQSHPFKP [YMR067C 315-328] | 140 |  |
| NNSGTGFPELYKP [YDR527W 27-39] | 24.7 |  |
| NNNNLDKPKVKRP [YOL148C 556-568] | 8720 |  |
| NNNQQKTPKLIKP [YJL087C 616-628] | 48.3 |  |
| NNPPQMVPKGVRP [YOR188W 1010-1022] | 1040 |  |
| NNPSNSIPKIEKP [YCL014W 1345-1357] | 108 |  |
| NPAPLTNTYIPYKP [YML020W 157-170] | 150 |  |

| Binder | normalised SPOT signal, Boehringer light units (BLU); mean over the file's lines of this peptide [1] | other results |
| --- | --- | --- |
| NPELEKLSVHPLKP [YNL106C 1166-1179] | 66.1 |  |
| NPIEHVKPIHIKP [YLR201C 20-32] | 66.7 |  |
| NPSNKSIPFWKRP [YNL034W 381-393] | 342 |  |
| NPVVATDPVAAKP [YFL049W 597-609] | 79 |  |
| NQTPAQGPPLRRP [YDR479C 205-217] | 8650 |  |
| NRADTLDPALLRP [YDR394W 319-331] | 87.6 |  |
| NRIQGNLHFAPGKP [YAL042W 215-228] | 253 |  |
| NRLDILDPALLRP [YGL048C 295-307] | 101 |  |
| NRMKIMMSMEPKKP [YDL240W 709-722] | 810 |  |
| NRNTLSTPEEKKP [YER109C 669-681] | 201 |  |
| NRPAIRIPSLKKP [YML102W 307-319] | 5260 |  |
| NRPDAVDPALRRP [YGR270W 562-574] | 53.9 |  |
| NRPDMIDPAMLRP [YLL034C 677-689] | 19.2 |  |
| NRPDQIDPAILRP [YDL126C 634-646] | 45.4 |  |
| NRPDTLDPALLRP [YOR259C 328-340] | 0 |  |
| NRPNSVDPALRRP [YLR397C 390-402] | 225 |  |
| NRPNTLDPALLRP [YKL145W 356-368] | 89.2 |  |
| NRPSVSHSQSPKRP [YNL080C 288-301] | 704 |  |
| NRTQRKTPTVIRP [YPL093W 23-35] | 330 |  |
| NSAPQLTVPEPSKP [YNL034W 542-555] | 89.3 |  |
| NSEMASLPISPRP [YDR359C 196-208] | 64.9 |  |
| NSLDLNQADNPLRP [YLL019C 65-78] | 23.6 |  |
| NSLIIGVDIVPMKP [YCL054W 71-84] | 175 |  |
| NSLLVLDPTYVKP [YOR198C 294-306] | 14.6 |  |
| NIPPNSPGKLQLNT [YNR017W 123-136] |  | normalised SPOT signal, Boehringer light units (BLU); mean over the file's lines of this peptide [2]: 0; normalised SPOT signal, Boehringer light units (BLU); mean over the file's lines of this peptide [3]: 93.6; normalised SPOT signal, Boehringer light units (BLU); mean over the file's lines of this peptide [4]: 77.6; normalised SPOT signal, Boehringer light units (BLU); mean over the file's lines of this peptide [5]: 84.4; normalised SPOT signal, Boehringer light units (BLU); mean over the file's lines of this peptide [6]: 37.5 |
